Assay results taken from article PMC4754693 (Scientific Reports, 2016).

Target: the molecule itself
Assay: AUC

B1: SARS 3C-like proteinase (SARS-3CLpro), wild type (enzyme)
chain: SGFRKMAFPSGKVEGCMVQVTCGTTTLNGLWLDDTVYCPRHVICTAEDMLNPNYEDLLIRKSNHSFLVQAGNVQLRVIGHSMQNCLLRLKVDTSNPKTPKYKFVRIQPGQTFSVLACYNGSPSGVYQCAMRPNHTIKGSFLNGSCGSVGFNIDYDCVSFCYMHHMELPTGVHAGTDLEGKFYGPFVDRQTAQAAGTDTTITLNVLAWLYAAVINGDRWFLNRFTTTLNDFNLVAMKYNYEPLTQDHVDILGPLSAQTGIAVLDMCAALKELLQNGMNGRTILGSTILEDEFTPFDVVRQCSGVTFQ
  stoichiometry N: 2
